From patent US8710195B2, “Fluorescent proteins” (JNC Corporation, priority 2003, dated 2014)

Experiments:
[1] = Substrate specificity, chemiluminescence with h-CTZ; assay type: biochemical; conditions: compared with coelenterazine
Method: bFP-aq, e-bFP-aq, and h-bFP-aq (0.25 μg) prepared in Example 2 were individually dissolved in 100 μl of 50 mM Tris-HCl (pH 7.6) containing 5 mM dithiothreitol (DTT) and 1 μg/μl coelenterazine and its analog were added to each solution. Each chemiluminescence in the steady reaction state (after 10 min) was measured with a luminometer (AB-2200; manufactured by Atto Co., Ltd.).

[2] = when calcium ions bind; cited from earlier work
[3] = Recoverability of fluorescence-generating ability after heating at 90° C.; assay type: physicochemical; conditions: heated at 90° C. for 3 min
Method: The thermal stability of bFP-aq prepared in Examples 2 was compared with that of gFP-aq prepared Example 3. The solution containing bFP-aq or gFP-aq with a protein concentration of 0.26 mg/ml was heated at 90° C. for 3 min and allowed to stand at 24° C. Subsequently, each fluorescence generation intensity was measured with a spectrofluorometer.

| Compound | Quality as luminescent substrate of the bFPs [1] | maximum wave length of blue light emission [2] | Ability to emit light due to the addition of calcium ions after heat treatment [3] |
| --- | --- | --- | --- |
| O=c1c(Cc2ccccc2)nc2c(Cc3ccccc3)[nH]c(-c3ccc(O)cc3)cn1-2 [h-coelenterazine] | serves as a luminescent substrate better than coelenterazine | – | – |
| aequorin | – | 465-470 nm | completely been lost |
